# From article PMC12416549 (2024)
# Where a chain is given by its changes, count along the chain named. Names and notes keep the numbering of the source.
# T1: TNFR1 (Homo sapiens, UniProt P19438)
# T1 chain: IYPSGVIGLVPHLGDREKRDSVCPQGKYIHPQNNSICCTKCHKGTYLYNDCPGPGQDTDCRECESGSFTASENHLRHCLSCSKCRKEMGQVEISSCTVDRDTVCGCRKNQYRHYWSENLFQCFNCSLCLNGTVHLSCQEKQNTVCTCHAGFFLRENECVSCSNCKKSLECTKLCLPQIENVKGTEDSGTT
# B1: L26M (designed binder)
# chain: MTLQELLREEALRRAEAEAFRYALEMLAEKFPEQKEYLLDLAEEIESQIRSLSGVDVEDVRKFLDKEWAWVKELLAEHPAELAEVEAARAARLAELRAEVEAKVAA
# B2: G54W (designed binder)
# chain: B1 chain with M26L, G54W
# B3: L26D (designed binder)
# chain: B1 chain with M26D
# B4: K62T (designed binder)
# chain: B1 chain with M26L, K62T
# B5: D65M (designed binder)
# chain: B1 chain with M26L, D65M
# B6: V104N (designed binder)
# chain: B1 chain with M26L, V104N
# B7: A105K (designed binder)
# chain: B1 chain with M26L, A105K
# B8: E58M (designed binder)
# chain: B1 chain with M26L, E58M
# B9: M1P (designed binder)
# chain: B1 chain with M1P, M26L
# B10: A91T (designed binder)
# chain: B1 chain with M26L, A91T
# B11: S47L (designed binder)
# chain: B1 chain with M26L, S47L
# B12: W70P (designed binder)
# chain: B1 chain with M26L, W70P
# B13: E101G (designed binder)
# chain: B1 chain with M26L, E101G
# B14: W70K (designed binder)
# chain: B1 chain with M26L, W70K
# B15: S47C (designed binder)
# chain: B1 chain with M26L, S47C
# B16: L39Y (designed binder)
# chain: B1 chain with M26L, L39Y
# B17: L75I (designed binder)
# chain: B1 chain with M26L, L75I
# B18: E36V (designed binder)
# chain: B1 chain with M26L, E36V
# B19: W70H (designed binder)
# chain: B1 chain with M26L, W70H
# B20: E73T (designed binder)
# chain: B1 chain with M26L, E73T
# B21: E67R (designed binder)
# chain: B1 chain with M26L, E67R
# B22: V104Q (designed binder)
# chain: B1 chain with M26L, V104Q
# B23: Q34V (designed binder)
# chain: B1 chain with M26L, Q34V
# B24: Y22G (designed binder)
# chain: B1 chain with Y22G, M26L
# B25: F20M (designed binder)
# chain: B1 chain with F20M, M26L
# B26: L26F (designed binder)
# chain: B1 chain with M26F
# B27: E99V (designed binder)
# chain: B1 chain with M26L, E99V
# B28: R97H (designed binder)
# chain: B1 chain with M26L, R97H
# B29: F63D (designed binder)
# chain: B1 chain with M26L, F63D
# B30: L12C (designed binder)
# chain: B1 chain with L12C, M26L
# B31: R61Q (designed binder)
# chain: B1 chain with M26L, R61Q
# B32: E95T (designed binder)
# chain: B1 chain with M26L, E95T
# B33: A94T (designed binder)
# chain: B1 chain with M26L, A94T
# B34: L41G (designed binder)
# chain: B1 chain with M26L, L41G
# B35: E73G (designed binder)
# chain: B1 chain with M26L, E73G
# B36: H78N (designed binder)
# chain: B1 chain with M26L, H78N
# B37: K35G (designed binder)
# chain: B1 chain with M26L, K35G
# B38: A83G (designed binder)
# chain: B1 chain with M26L, A83G
# B39: D59V (designed binder)
# chain: B1 chain with M26L, D59V
# B40: R14K (designed binder)
# chain: B1 chain with R14K, M26L
# B41: V57K (designed binder)
# chain: B1 chain with M26L, V57K
# B42: L64P (designed binder)
# chain: B1 chain with M26L, L64P
# B43: E29Q (designed binder)
# chain: B1 chain with M26L, E29Q
# B44: E99S (designed binder)
# chain: B1 chain with M26L, E99S
# B45: G54T (designed binder)
# chain: B1 chain with M26L, G54T
# B46: A80F (designed binder)
# chain: B1 chain with M26L, A80F
# B47: E46H (designed binder)
# chain: B1 chain with M26L, E46H
# B48: A28Y (designed binder)
# chain: B1 chain with M26L, A28Y
# B49: E33H (designed binder)
# chain: B1 chain with M26L, E33H
# B50: A83C (designed binder)
# chain: B1 chain with M26L, A83C
# B51: S51G (designed binder)
# chain: B1 chain with M26L, S51G
# B52: A106V (designed binder)
# chain: B1 chain with M26L, A106V
# B53: L6K (designed binder)
# chain: B1 chain with L6K, M26L
# B54: L26K (designed binder)
# chain: B1 chain with M26K
# B55: Q48G (designed binder)
# chain: B1 chain with M26L, Q48G
# B56: W70T (designed binder)
# chain: B1 chain with M26L, W70T
# B57: R14P (designed binder)
# chain: B1 chain with R14P, M26L
# B58: L7Y (designed binder)
# chain: B1 chain with L7Y, M26L
# B59: V55P (designed binder)
# chain: B1 chain with M26L, V55P
# Target: T1, TNFR1
# Assay: yeast display SC50
row,Binder,apparent Kd (screen)
1,B1,593 pM
2,B2,2730 pM
3,B3,956 pM
4,B4,539 pM
5,B5,718 pM
6,B6,593 pM
7,B7,869 pM
8,B8,490 pM
9,B9,446 pM
10,B10,593 pM
11,B11,653 pM
12,B12,11400 pM
13,B13,490 pM
14,B14,5840 pM
15,B15,718 pM
16,B16,1690 pM
17,B17,790 pM
18,B18,1050 pM
19,B19,12500 pM
20,B20,718 pM

row,Binder,apparent Kd (screen)
1,B21,8560 pM
2,B22,490 pM
3,B23,405 pM
4,B24,653 pM
5,B25,869 pM
6,B26,593 pM
7,B27,446 pM
8,B28,593 pM
9,B29,7070 pM
10,B30,790 pM
11,B31,539 pM
12,B32,539 pM
13,B33,539 pM
14,B34,12500 pM
15,B35,718 pM
16,B36,539 pM
17,B37,490 pM
18,B38,539 pM
19,B39,653 pM
20,B40,490 pM

row,Binder,apparent Kd (screen)
1,B41,1160 pM
2,B42,3990 pM
3,B43,539 pM
4,B44,956 pM
5,B45,446 pM
6,B46,539 pM
7,B47,539 pM
8,B48,22200 pM
9,B49,490 pM
10,B50,869 pM
11,B51,1690 pM
12,B52,653 pM
13,B53,7070 pM
14,B54,718 pM
15,B55,718 pM
16,B56,29500 pM
17,B57,490 pM
18,B58,12500 pM
19,B59,653 pM
